# According to the supplement of paper PMC9732359:
# ± gives the uncertainty stated by the source.
# Test: protein stability index of a GFP-peptide fusion (yeast GPS) (PSI 1-4); higher = more stable; sorted into four equal gates, so the index is relative within each strain
# In short: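 Each library plasmid carries Cherry plus GFP with a tiled 17-residue yeast protein peptide fused downstream, and the pooled library was carried in yeast. Mid-log cultures in leucine-free medium were sorted into four equal gates by GFP/Cherry ratio. Reads from Illumina sequencing of PCR-amplified plasmids from each gate were assigned to strains by barcodes. Per peptide, the protein stability index was computed as the summed products of gate read frequency and gate number.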
Sequence,protein stability index (doa10∆),protein stability index (pdr5∆),protein stability index (san1∆),protein stability index (ubr1∆)
GNNTELTKTTVNISAVD [YCG1],2.98 ± 0.07,3.24 ± 0.071,3.02 ± 0.054,3.12 ± 0.054
IGIAGAHRVRDLMDEEL [SKI6],3.38 ± 0.13,3.36 ± 0.11,2.94 ± 0.088,3.07 ± 0.13
EPPGSNTSFSFTKPPAN [YOR098C/NUP1],3.12 ± 0.07,3.21 ± 0.057,3 ± 0.039,2.96 ± 0.053
EREQPQENKNIDDENIT [SRB4],3.5 ± 0.055,3.19 ± 0.071,3.07 ± 0.051,3.65 ± 0.084
FMDETAVALAASDLVLI [SNU114],2.55 ± 0.062,2.74 ± 0.076,2.69 ± 0.11,2.21 ± 0.051
LRGEYNDLQSETKTKKE [SMC4],,3.4 ± 0.087,3.24 ± 0.072,2.82 ± 0.066
GSKKGQEGKISSVYRLK [RPL26A],3.15 ± 0.11,2.94 ± 0.096,2.7 ± 0.086,3.33 ± 0.11
MSACVGQQSVEGKRIAF [RPO21],2.27 ± 0.26,1.97 ± 0.16,1.62 ± 0.24,2.63 ± 0.24
TGWHVDQAIVTETKRLV [DIB1],1.88 ± 0.074,2.24 ± 0.075,2.08 ± 0.25,1.9 ± 0.077
IIGPNGSGKSNMMDAIS [SMC1],3.06 ± 0.13,3.24 ± 0.089,3.03 ± 0.075,3.28 ± 0.05
SKAFKESSDFGAIILTK [SRP54],2.12 ± 0.073,1.57 ± 0.056,1.56 ± 0.17,1.67 ± 0.06
DITDGKDYHTLANNVES [RPS18A],3.21 ± 0.052,3.31 ± 0.048,3.22 ± 0.042,3.22 ± 0.04
ENISLAEFILKNRSTIF [BRR2],2.77 ± 0.082,2.13 ± 0.082,1.67 ± 0.11,1.88 ± 0.054
ENCLNNDPEILKKIASI [SWI1],2.48 ± 0.11,2.08 ± 0.074,2.48 ± 0.1,2.71 ± 0.092
ENGIEVELLDSNDRVNP [ITC1],3.56 ± 0.078,3.2 ± 0.11,3.29 ± 0.062,3.19 ± 0.061
TWSLILNECLKTIQINN [YML031W/NDC1],1.88 ± 0.057,1.62 ± 0.058,1.3 ± 0.1,1.86 ± 0.042
GKAKGDIPGVRFKVVKV [RPS23A],3.32 ± 0.19,3.42 ± 0.18,,
GTFGGDGMYSESKLSLE [FAS2],2.91 ± 0.046,2.66 ± 0.051,3.35 ± 0.036,2.87 ± 0.04
NMFGDYSNEPFNTNFDD [SNF6],3.11 ± 0.088,2.78 ± 0.059,3.06 ± 0.069,2.85 ± 0.045
SIGYETELKKITDKTIK [IRR1],3.06 ± 0.07,3.12 ± 0.066,2.99 ± 0.062,3 ± 0.082
EVTDKNYYYLFDKKSFF [PRP8],2.92 ± 0.056,2.44 ± 0.043,2.9 ± 0.041,2.84 ± 0.04
NLDNLQKVSQLESADKQ [POP4],3.06 ± 0.1,2.59 ± 0.1,3.01 ± 0.092,2.86 ± 0.18
IDSVEVETNTTVLADEF [RPB3],2.96 ± 0.076,3.17 ± 0.071,3.09 ± 0.051,3.16 ± 0.037
DNGGTILGIAGEDFAVL [PRE7],3.46 ± 0.099,3.08 ± 0.13,3.34 ± 0.14,3.47 ± 0.052
RDIFQEDEENSDVLLFQ [RGR1],3.37 ± 0.061,3.46 ± 0.071,3.4 ± 0.039,3.23 ± 0.035
NNTVDPGFDEFQLIDMK [CSI1],3.18 ± 0.064,3.12 ± 0.062,3.31 ± 0.038,3.21 ± 0.041
